# Test results taken from a protein production outcome set (Wang et al. 2014).
# Test: label from the status in PepcDB records
# 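Further: failed if final PepcDB status was selected cloned or expressed and not failed if soluble or beyond.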
row,Sequence,protein production
1,MMYTNDNRIVMTLDAGGTNFVFSAIQGGKEIADPVVLPACADCLDKCLGNLVEGFKAIQAGLPEAPVAISFAFPGPADYQAGIIGDLPNFPSFRGGVALGPFLEDIFGIPVFINNDGSLFAYGEALTGVLPEINRRLREAGSTKRYKNLLGVTLGTGFGAGVVIDGELLRGDNAAGGYVWCLRNKKYPEYIVEESVSIRAVMRVYAERSGDAGARTPKEIFEIAEGIRPGNREAAIAAFEELGEMAGDALASAITLIDGLIVIGGGLSGASKYILPVLLKEMNAQTGMMDGARFGRLQKEVYDLDEEKSFAGFARGEAVEVLVPGTNRKVGYDPCKRIGVTFSKQGANRSIAMGAYVFALNHLSK,not failed
2,MNADEFVEAFNNAKDLTELELLAELGKSISDDLEGHEKGKVLGTLGNIYYALHRLKEAEEAYLEALNVYLKLSEEDEGFLPYVVGCLYNLGNLYQVSRKFAEAEKAYTDALKVLGDVRNDQRLAILTALGTMYAKLDMKEHAERCLVEAFEMAKVKGDARLLGTLLNNLAVVYQRGGRKREAAMLLKMALDALERVGEDLGIAAVLQNLLPYLDEDELRRVMERLESFGELPIDLKAKIAYFKARRAEEKGEDSAKHYMEAACLGFMAYRNFGFQSINFMHCLDKVIESDSELREDAVVLKKVILKYYYGSQKVEIDFDSRVGRMIKAVLEGDDIYEDGILEDTVRLIAEDLLKAGTKV,failed
3,MNADGWLADTRSSYDTVAVSYADQLRGALAGTPYLRAALELFAGMIHTAGGGPVADVGCGPGHVTAHLHGLGVDAFGIDLSPAMIDVARRDHPDLRFEVGSMTDLNLADASVTALLAFWSLIHVPDDAIPAVFGHFRRVVRPGGPLLLGFHIGDESRLKTEGYGGHPMKVHVHHRQPVQVTAWLRDAGFTVEAQWLLGLDGHIPGAVLFAHRQSLEHHHHHH,failed
4,MNAHRAQLISLARPVYFSLLASVAAGIINTVWVSRLGGPAVAAVAVATNTENVLLGVALVFASGTTVLVAHARGAQDPGAVRAAVRGGWALCAVVTPVVAGCGYLLREPLARLVLGGEGPALPLAVGYFAISLPGITVFYAQNLVDGILKGAGDTRTPMRLALLANGLILALDPLLIHRYGVRGAAVSTVLCRCAALGVGLLALRRNALLRGAAAVRPAEATGAALRRTLSTGLPMSADFTVRQGGALVLVAIVARLGVTAVAAYSIAYKVMYVATMAFYAVRQAASIHTAHTRGADRRASSRSAGAGSGGERRAIGRQAVVVSGTVGLLASALLCVLAPWVMRAFGAGPEVAHQGVLFLRCVGPYLLLMACFIALGGVFEGSGGAPVLLRVTLLGTAVQLPLAYALSGLGLPGICLALALAMVVQCAALLPGVRRQEDARDSLVRVA,failed
5,MNAIVEPRRAQPTDSDAILNALPNPVLLVGPDGKIVDANMAAESFFEISTQLLRRQSLTDLVPFGSPLLALIEQVRVGHSPVNEYKVDLGTPRIGADRQVDLHVAPLNERPGHIVVMLQERTIADKMDRQLTHRSAARSVIALAAMLAHEIKNPLSGIRGAAQLLEQQASAEDRMLTRLICDEADRIVTLVDRMEVFGDDRPVARGPVNIHSVLDHVKRLAQSGFARNIKFIEDYDPSLPPVLANQDQLIQVFLNLVKNAAEAVVDLGSDGEIQLTTAFRPGVRLSVPGKKTRVSLPLEFCVRDNGPGVPEDLLPNLFDPFVTTKPSGSGLGLALVAKIVGDHGGIIECESQPRKTTFRVLMPMFNTAKALQSPNGEDAPASSDASQTAR,failed
6,MNAPLLTQDTKRTLAWIAVAVAFLALLKLLAPTLTPFVFAGILSYILHPGVEWLQRHRVPRVLGVFLMILLLTVVAVALMLLILAVLQREIPAIREQLPGMLSKLNAAVTPRLAEMGVHVRFDFPGLRKLLTEQLAASPEDVMSTALNYLRVSGSAAVQVLGIVFLVPIVMFYLLMDWNMLIRRLEGAVPRRWISKTRELAAETDGLLSQYLRGQIIVMLVLAAYYSAGLALAGFDVALPIGIFTGLAVFIPYIGFGIGLILAILSALLQFGNLYGLLAVAVVYGVGQVLEGFYLTPRLVGERIGLHPLAVILALLAFGQLFGFFGILLALPISAVLLVGLRQIRQLYLGSKLYRD,failed
7,MNAVGLVAFATVGSLKAIDADFDVLGVAVLGVLTALGGGATRDVLVGSVPAMLQSTTDVGFALAGVVVAVVVARRVGTEVLAHPVVDVPDAVGLAAFAASGALVGVGADVSPFGVVVLGTTTGVGGGLVSDVLLQRVPFVLTEDLYATCAIAGSTVLWVATASGLGATIAAAAGAGVTLAVRLLAIRFEWALPTVRLNAPA,failed
8,MNAVHFGAGNIGRGFIGEILAKNGFHITFVDVNETIIQALKERKSYTIELADASHQQINVENVTGLNNMTEPEKVVEAIAEADLVTTAIGPNILPRIAELIAQGIDARAEANCQKPLDIIACENMIGGSTFLAEEVAKYLKNPAYAEQWIGFPDAAVDRIVPLQKHEDPLFVQVEPFCEWVIDDTNRKAKEIQLEGVHYVADLEPYIERKLFSVNTGHATVAYTGALLGYQTIDEAMQDALVVAQLKSVLQETGKLLVAKWNFDEQEHAAYIEKIIQRFQNKYISDAITRVARTPIRKLGAQERFIRPIRELQERNLVSPHLLAMIGIVFNYHDPEDEQSRQLQEMLDQESVDTVIAEVTGIEDPETVKNIKQNVERYARPQVA,failed
9,MNCAISGEVPVEPVVSTKSGLLFERRLIERHISDYGKCPVTGEPLTIDDIVPIKTGEIIKPKTLHTASIPGLLGTFQNEWDGLMLSNFALEQQLHTARQELSHALYQHDSACRVIARLKKERDEARQLLAEVERHIPAAPEAVTANAALSNGKRAAVDEELGPDAKKLCPGISAEIITELTDCNAALSQKRKKRQIPQTLASIDTLERFTQLSSHPLHKTNKPGICSMDILHSKDVIATGGVDATAVLFDRPSGQILSTLTGHSKKVTSVKFVGDSDLVLTASADKTVRIWRNPGDGNYACGYTLNDHSAEVRAVTVHPTNKYFVSASLDGTWCFYDLSSGSCLAQVSDDSKNVDYTAAAFHPDGLILGTGTSQSVVKIWDVKSQANVAKFDGHTGEVTAISFSENGYFLATAAEDGVRLWDLRKLRNFKSFLSADANSVEFDPSGSYLGIAASDIKVYQTASVKAEWNLIKTLPDLSGTGKATCVKFGSDAQYVAVGSMDRNYGYLVFLVMKKPTSMMTLRKTREQSVKNSDRTFQMSISSVISLKFLKFCCILQYLQQWGRIS,failed
10,MNDFSCPAIAFPSFLNPVIVHLGPIALYWYGLGYVVGILFVWWYAQKLLKKQSLWYANHPPMDKEKIGDFVVWSAISIVVGGRLGQVLVWDPIYYFSHPTAIITIWNGGMSFHGGLIGITIAMIWFARKNNIKIRAMFDIIAIGAPIGIGIVRICNFINQELWGNVTTHPWAVCFPLDPYYLPRHPSQLYEALMEGFLLFVILFILTFAFKALKRPGTVSGIFIIGYAIARSISEIYRAPQEDPEWFSTLFHSTGFTYGMALSLPMLFLGFYLLFQAFKDESTKNGHTQTKN,failed
11,MNDFSLELPVRTNKPRETGQSILIDNGYPLQFFKDAIAGASDYIDFVKFGWGTSLLTKDLEEKISTLKEHDITFFFGGTLFEKYVSQKKVNEFHRYCTYFGCEYIEISNGTLPMTNKEKAAYIADFSDEFLVLSEVGSKDAELASRQSSEEWLEYIVEDMEAGAEKVITEARESGTGGICSSSGDVRFQIVDDIISSDIDINRLIFEAPNKTLQQGFIQKIGPNVNLANIPFHDAIALETLRLGLRSDTFFL,not failed
12,MNDIAREPVLGGAPAPAVPQPLRVRFCGSGSEYFRIWIVNLLLTIVTLGIYSAWAKVRTLQYFYRNTQLGGASFDYHGSPTAILKGRAIIFVLALAFNLSGQVSPVLTLLLLAAIGLVFPWLLVRSLRFRMANSSYRGLRFAFTGKDAQAYKVFLLWPVLTVFTFNLLAPFAHQRFKQYQHRNTRFGTTSFDFSATAGQFYGVYLRTFGMAILAVMAVGVVVVLAGVSAAAGAASGGRAIAVSLMVLAMYAAMLFLGPYFLARLQNVVWNHTTLGAHRFQSQVSAGKLFWIFISNAALLIVTLGLFTPFARVRSARYKLESVTMLAAGSLDTFVAGESTRVGALGDAAVDWYDIDIAL,failed
